Laboratory results from patent US20230250178A1.

Assays:
human CCR8 (human) [1] = target: human CCR8 (human) (UniProt P51685); assay: FACS, CHO-hCCR8
[2] = target: cynomolgus CCR8 (cynomolgus); assay: FACS, CHO-cynoCCR8
human CCR8 (human) [3] = target: human CCR8 (human) (UniProt P51685); assay: cell-based or functional assay
human CCR8 (human) [4] = target: human CCR8 (human) (UniProt P51685); assay: FACS, BODIPY-labelled antibody, HuT78

Chain of cynomolgus CCR8 (cynomolgus) (O97665 other isoform, or with tags, fused parts or gaps): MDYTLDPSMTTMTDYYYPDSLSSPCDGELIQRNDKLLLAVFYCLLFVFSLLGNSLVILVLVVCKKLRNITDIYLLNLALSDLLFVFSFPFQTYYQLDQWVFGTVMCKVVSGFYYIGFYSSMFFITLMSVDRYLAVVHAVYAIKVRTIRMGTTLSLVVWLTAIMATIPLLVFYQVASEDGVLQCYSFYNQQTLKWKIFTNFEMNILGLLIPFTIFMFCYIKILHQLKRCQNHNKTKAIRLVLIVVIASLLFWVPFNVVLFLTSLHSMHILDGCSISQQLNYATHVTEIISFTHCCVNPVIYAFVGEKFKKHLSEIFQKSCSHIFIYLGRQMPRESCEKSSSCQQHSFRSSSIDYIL

EC50 (human CCR8 (human) [1]): 2.8 nM
EC50 [2]: 12.1 nM
IC50, Ca flux assay (human CCR8 (human) [3]): 1.3 nM
IC50, inhibition of CCL1 induced β-arrestin signaling (human CCR8 (human) [3]): 0.78 nM
FACS HuT78 [MFI] (human CCR8 (human) [4]): 50 MFI
B1: 433H (antibody, from another filing, V domains shown)
VH: EVQLVETGGGLVQPKGSLRLSCAASGFPFNTFAMNWVRQAPGKGLEWLARIRSKSNNYATYYADSVKDRFTISRDDSRRMLYLLMNNVKFEDTAIYYCVRGKENNYGYAMDYWGQGTSVTVSS
VL: DIVMTQAAPSVPVTPGESVSISCRSSQSLLHSNGNTYLYWFLQRPGQSPQLLIYRMSNLASGVPDRFSGSGSGTAFTLRISRVEAEDVGVYYCMQHLEYPFTFGIGTKLELKR
